Biological target: the molecule itself
Experiment: negative-stain transmission electron microscopy; Hcp1cc nanotubes incubated with the reducing agent DTT (nanorings)

B1: Pseudomonas aeruginosa Hemolysin-coregulated protein 1 double mutant G90C + R157C (Hcp1cc) (natural protein)
chain: MAVDMFIKIGDVKGESKDKTHAEEIDVLAWSWGMSQSGSMHMGGGGGAGKVNVQDLSFTKYIDKSTPNLMMACSSGKHYPQAKLTIRKACGENQVEYLIITLKEVLVSSVSTGGSGGEDRLTENVTLNFAQVQVDYQPQKADGAKDGGPVKYGWNICQNVQA
notes: Hemolysin-coregulated protein 1 (Hcp1) of Pseudomonas aeruginosa with G90C and R157C; printed monomer mass 18.3 kD; 6 copies make one ring; without reducing agent the rings stack into disulfide-bonded nanotubes (up to 8-9 rings as purified, up to 14-18 rings after the oligomerization process); also called Hcp1cc nanoring; Hcp1cc nanotube; source: tangential flow filtration
stoichiometry N: 6 monomers

Source: publication PMC11011275, “Impact of Protein Nanoparticle Shape on the Immunogenicity of Antimicrobial Glycoconjugate Vaccines” (International Journal of Molecular Sciences, 2024)
